Measurements published in the Immune Epitope Database (IEDB).

Assays:
[1] = biological target: HLA-B*48:01; experiment: IEDB peptide-MHC binding, purified MHC/direct/fluorescence; filed as Kd, often an IC50 or EC50 that approximates it; ≥ and ≤ were set here for values at or beyond the usual limits of such assays
[2] = biological target: HLA-A*29:02; experiment: IEDB peptide-MHC binding, purified MHC/competitive/fluorescence; filed as Kd, often an IC50 or EC50 that approximates it; ≥ and ≤ were set here for values at or beyond the usual limits of such assays
[3] = biological target: HLA-A*02:01; experiment: IEDB peptide-MHC binding, purified MHC/competitive/fluorescence; ≥ and ≤ were set here for values at or beyond the usual limits of such assays
[4] = biological target: HLA-A*03:01; experiment: as above
[5] = biological target: HLA-A*11:01; experiment: as above
[6] = biological target: HLA-A*24:02; experiment: as above; conditions: source organism: Zaire ebolavirus
[7] = biological target: HLA-B*18:01; experiment: IEDB peptide-MHC binding, purified MHC/direct/fluorescence; filed as Kd, often an IC50 or EC50 that approximates it; ≥ and ≤ were set here for values at or beyond the usual limits of such assays
[8] = biological target: HLA-A*26:01; experiment: as above; conditions: source organism: Mammarenavirus amapariense
[9] = biological target: HLA-B*40:01; experiment: as above
[10] = biological target: HLA-B*44:02; experiment: as above; conditions: source organism: Influenza A virus (A/chicken/CA/375TR/2002(H6N2))
[11] = biological target: HLA-A*02:01; experiment: IEDB peptide-MHC binding, purified MHC/competitive/fluorescence; filed as Kd, often an IC50 or EC50 that approximates it; ≥ and ≤ were set here for values at or beyond the usual limits of such assays; conditions: source organism: Burkholderia mallei SAVP1
[12] = biological target: HLA-A*02:19; experiment: as above; conditions: source organism: Burkholderia mallei SAVP1
[13] = biological target: HLA-A*02:01; experiment: IEDB peptide-MHC binding, purified MHC/competitive/radioactivity; filed as Kd, often an IC50 or EC50 that approximates it; ≥ and ≤ were set here for values at or beyond the usual limits of such assays; conditions: source organism: Vaccinia virus WR
[14] = biological target: HLA-B*35:01; experiment: as above; conditions: source organism: Vaccinia virus WR
[15] = biological target: HLA-A*68:02; experiment: as above; conditions: source organism: Vaccinia virus WR
[16] = biological target: HLA-A*02:02; experiment: as above; conditions: source organism: Vaccinia virus WR
[17] = biological target: HLA-A*03:01; experiment: as above; conditions: source organism: Vaccinia virus WR
[18] = biological target: HLA-A*68:01; experiment: as above; conditions: source organism: Vaccinia virus WR
[19] = biological target: HLA-A*02:06; experiment: as above; conditions: source organism: Vaccinia virus WR
[20] = biological target: HLA-B*07:02; experiment: as above; conditions: source organism: Vaccinia virus WR
[21] = biological target: HLA-A*11:01; experiment: as above; conditions: source organism: Vaccinia virus WR
[22] = biological target: HLA-B*54:01; experiment: as above; conditions: source organism: Vaccinia virus WR
[23] = biological target: HLA-B*51:01; experiment: as above; conditions: source organism: Vaccinia virus WR
[24] = biological target: HLA-A*31:01; experiment: as above; conditions: source organism: Vaccinia virus WR
[25] = biological target: HLA-A*02:03; experiment: as above; conditions: source organism: Vaccinia virus WR
[26] = biological target: HLA-A*33:01; experiment: as above; conditions: source organism: Vaccinia virus WR
[27] = biological target: HLA-B*53:01; experiment: as above; conditions: source organism: Vaccinia virus WR
[28] = biological target: HLA-B*08:01; experiment: IEDB peptide-MHC binding, purified MHC/direct/fluorescence; filed as Kd, often an IC50 or EC50 that approximates it; ≥ and ≤ were set here for values at or beyond the usual limits of such assays; conditions: source organism: Yersinia pestis CA88-4125
[29] = biological target: HLA-A*68:02; experiment: as above; conditions: source organism: Influenza A virus (A/ruddy turnstone/Delaware/67/1998(H12N4))
[30] = biological target: HLA-A*02:19; experiment: as above; conditions: source organism: Influenza A virus (A/ruddy turnstone/Delaware/67/1998(H12N4))
[31] = biological target: HLA-A*11:01; experiment: as above; conditions: source organism: Influenza A virus (A/ruddy turnstone/Delaware/67/1998(H12N4))
[32] = biological target: HLA-A*02:12; experiment: as above; conditions: source organism: Influenza A virus (A/ruddy turnstone/Delaware/67/1998(H12N4))
[33] = biological target: HLA-A*02:03; experiment: as above; conditions: source organism: Influenza A virus (A/ruddy turnstone/Delaware/67/1998(H12N4))
[34] = biological target: HLA-B*51:01; experiment: IEDB peptide-MHC binding, purified MHC/competitive/fluorescence; filed as Kd, often an IC50 or EC50 that approximates it; ≥ and ≤ were set here for values at or beyond the usual limits of such assays; conditions: source organism: Influenza A virus (A/ruddy turnstone/Delaware/67/1998(H12N4))
[35] = biological target: HLA-B*18:01; experiment: as above; conditions: source organism: Influenza A virus (A/ruddy turnstone/Delaware/67/1998(H12N4))
[36] = biological target: HLA-A*69:01; experiment: as above; conditions: source organism: Influenza A virus (A/ruddy turnstone/Delaware/67/1998(H12N4))
[37] = biological target: HLA-B*46:01; experiment: as above; conditions: source organism: Influenza A virus (A/ruddy turnstone/Delaware/67/1998(H12N4))
[38] = biological target: HLA-B*57:01; experiment: as above; conditions: source organism: Influenza A virus (A/ruddy turnstone/Delaware/67/1998(H12N4))
[39] = biological target: HLA-A*26:01; experiment: as above; conditions: source organism: Influenza A virus (A/ruddy turnstone/Delaware/67/1998(H12N4))
[40] = biological target: HLA-B*39:01; experiment: as above; conditions: source organism: Influenza A virus (A/ruddy turnstone/Delaware/67/1998(H12N4))
[41] = biological target: HLA-B*27:03; experiment: as above; conditions: source organism: Influenza A virus (A/ruddy turnstone/Delaware/67/1998(H12N4))
[42] = source organism: Zaire ebolavirus
[43] = source organism: Sudan ebolavirus
[44] = source organism: Francisella tularensis subsp. holarctica LVS
[45] = source organism: Vaccinia virus Copenhagen
[46] = source organism: Influenza A virus (A/chicken/CA/375TR/2002(H6N2))
[47] = source organism: Burkholderia ambifaria AMMD

Question: With AEWGWTATM as the sequence, how does the Kd ([1]; source organism: Giardia lamblia ATCC 50803) read?
Answer: ≥ 20000 nM

Question: For MTIHFFLNE, which Kd ([2]; source organism: Entamoeba histolytica HM-1:IMSS) is on record?
Answer: 192 nM

Question: How did the IC50 [3, 42] turn out when LLPAVSSGK was run?
Answer: ≥ 73.6 µM

Question: What about the IC50 [4, 42] of the same sequence?
Answer: 1.9 µM

Question: What about the IC50 [5, 42] of the same sequence?
Answer: 3.64 µM

Question: And the IC50 [6]?
Answer: ≥ 79.6 µM

Question: With DEYQGNHMF as the sequence, how does the Kd ([7]; source organism: Vibrio parahaemolyticus) read?
Answer: 0.6 nM

Question: KFYSKISEY was tested. Which IC50 ([4]; source organism: Human papillomavirus 16) did it give?
Answer: 3 µM

Question: How did the Kd ([2]; source organism: Bacillus anthracis str. CDC 684) turn out when STIGYALKH was run?
Answer: 39.4 nM

Question: With GLSLLQLPR as the sequence, how does the IC50 [3, 43] read?
Answer: 16.8 µM

Question: And the IC50 [4, 43]?
Answer: 2.19 µM

Question: What about the IC50 [5, 43] of the same sequence?
Answer: 3.53 µM

Question: With GLRKRSRRQ as the sequence, how does the IC50 [4, 43] read?
Answer: 46.4 µM

Question: For EKPGNRNPY, which Kd [8] is on record?
Answer: 2780 nM

Question: Which Kd [9, 44] does the source give for AEVCAHHLF here?
Answer: 3.5 nM

Question: What about the Kd [7, 44] of the same sequence?
Answer: 3.6 nM

Question: With VTGILQLPR as the sequence, how does the IC50 [4, 42] read?
Answer: 6.83 µM

Question: What about the IC50 [5, 42] of the same sequence?
Answer: 0.36 µM

Question: With KLYKNKSKQ as the sequence, how does the IC50 [3, 45] read?
Answer: ≥ 81.8 µM

Question: And the IC50 [4, 45]?
Answer: 3.01 µM

Question: And the IC50 [5, 45]?
Answer: ≥ 1360 µM

Question: For REITFHGAK, which Kd [9, 46] is on record?
Answer: 412 nM

Question: What about the Kd [7, 46] of the same sequence?
Answer: 1220 nM

Question: And the Kd [10]?
Answer: ≥ 20 µM

Question: How did the Kd ([2]; source organism: Vibrio vulnificus YJ016) turn out when YDPARYPLY was run?
Answer: 30.5 nM

Question: For IMALKQAGL, which Kd [11] is on record?
Answer: 44.5 nM

Question: What about the Kd [12] of the same sequence?
Answer: 4.5 nM

Question: Which Kd ([1]; source organism: Campylobacter jejuni subsp. jejuni 81116) does the source give for RKNGGNFLL here?
Answer: 145 nM

Question: Which results are given for AFVRFSTDK?
Answer: Kd [13]: ≥ 78.1 µM; Kd [14]: ≥ 33.9 µM; Kd [15]: ≥ 76.9 µM; Kd [16]: ≥ 77.8 µM; Kd [17]: ≥ 25.4 µM; Kd [18]: ≥ 57.7 µM; Kd [19]: ≥ 77.1 µM; Kd [20]: ≥ 77.5 µM; Kd [21]: 8.6 µM; Kd [22]: ≥ 78.1 µM; Kd [23]: ≥ 77.5 µM; Kd [24]: 3.1 µM; Kd [25]: ≥ 78.1 µM; Kd [26]: ≥ 77.7 µM; Kd [27]: ≥ 78.2 µM

Question: Which results are given for AELHAKGAY?
Answer: Kd [9, 47]: ≥ 20000 nM; Kd [7, 47]: 1120 nM

Question: How did the Kd ([2]; source organism: Cryptosporidium parvum Iowa II) turn out when STSDGKHLQ was run?
Answer: 284 nM

Question: For VDFGIIWRY, which Kd ([2]; source organism: Vibrio cholerae 2740-80) is on record?
Answer: 100 nM

Question: SMKTRTAWF was tested. Which Kd [28] did it give?
Answer: 7 nM

Question: What does the source list for IVFMWAIHH?
Answer: Kd [29]: ≥ 20 µM; Kd [30]: ≥ 20 µM; Kd [31]: 187 nM; Kd [32]: ≥ 20 µM; Kd [33]: ≥ 20 µM; Kd [34]: ≥ 20 µM; Kd [35]: ≥ 20 µM; Kd [36]: ≥ 20 µM; Kd [37]: ≥ 20 µM; Kd [38]: ≥ 20 µM; Kd [39]: ≥ 20 µM; Kd [40]: ≥ 20 µM; Kd [41]: ≥ 20 µM

Question: How did the Kd ([2]; source organism: Sinorhizobium meliloti 1021) turn out when LMISGDLPQ was run?
Answer: 37.3 nM

Question: Which results are given for FTVVSNGAK?
Answer: IC50 [4, 42]: 17.7 µM; IC50 [5, 42]: 1.51 µM
